How the values were obtained:
[1] = target: prefusion MERS-CoV EMC/2012 S ectodomain trimer (MERS-CoV-2P S) (MERS-CoV EMC/2012)
[2] = target: prefusion MERS-CoV EMC/2012 S ectodomain trimer (MERS-CoV-2P S) (MERS-CoV EMC/2012); assay: SPR

B1: cHALC3_919_cb3 (designed binder)
chain: MSGSEELLEELRELLERLQELLELIEQGKITPEQLREAIALLIEVLQILYEALRELAEQLQRLREELGGSGSPVKRFVREVLEEAEEAYEKGDRRQFEELLWLAEWAARDANDEELEEEIREFEKEVKGS
Table S6, cHALC3 919: neutralisation IC50, EMC/2012 S VSV pseudovirus, exp 1 [1]: 15.3 nM
Table S6, cHALC3 919: neutralisation IC50, EMC/2012 S VSV pseudovirus, exp 2 [1]: 5 nM

B2: nHALC3_919_cb3 (designed binder)
chain: MSGSPVKRFVREVLEEAEEAYEKGDRRQFEELLWLAEWAARDANDEELEEEIREFEKEVKGSGSEELLEELRELLERLQELLELIEQGKITPEQLREAIALLIEVLQILYEALRELAEQLQRLREELGGS
Kd [2]: 0.11 nM
koff [2]: 6e-05 s⁻¹
kon [2]: 560000 M⁻¹ s⁻¹
Table S6, nHALC3 919: neutralisation IC50, EMC/2012 S VSV pseudovirus, exp 1 [1]: 5.9 nM
Table S6, nHALC3 919: neutralisation IC50, EMC/2012 S VSV pseudovirus, exp 2 [1]: 1.7 nM
